Source: the nanobody polyreactivity screen of Harvey et al. (2022)

Assay: yeast display, Sf9 membrane polyspecificity reagent, FACS + sequencing; frameworks hold sequencing errors
In short: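 Synthetic nanobody libraries on Saccharomyces cerevisiae BJ5465 were galactose-induced for 36–48 hours, stained 1 hour at 4 °C with 10% biotinylated, detergent-solubilized Sf9 membrane reagent and enriched on streptavidin microbeads. FACS then separated cells into low and high (top ~1%) gates by anti-HA (expression) and streptavidin (reagent binding) fluorescence. Genes were colony-PCR amplified, MiSeq 2 × 250 sequenced and CDR-length filtered. A clone's polyreactivity label is that of its gate of origin.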

| Sequence | polyreactivity (PSR sort gate) |
| --- | --- |
| QVQLVESGGGLVQAGGSLRLSCAASGSIFVYYAMGWYRQAPGNERELVAAISKTGGRTYYADSVKGRFTISRDNAKNTVYLQMNSLKPEDSAVYYCAARYTIRYKRYDYWGQGTQVTVSS | high polyreactivity |
| QVQIVESGGGLVQAGGSLRLSCAASGSIFITYAMGWYRPAPGKERELVAAIRDSGDRTYYADSVKGRFTISRDNAKNTVYLQMNSLKPEDTAVYYCNARWQEPLKYDYWGQGTQVTVSS | low polyreactivity |
| QVQLVESGGGLVQAGGSLRLSCAASGSTSVQYAMGWYRQAPVKERELVAAIDRSGGSTSYADSVKGRFTISRDNANNTVYLQMNSLKPEDTAVYYCNADPVRSTYSYDYWGQGTQVTVSS | low polyreactivity |
| QVQLVESGGGLVQAGGSLRLSCAASGIIFIGYAMGWYRQAAGKERELVAAITRSGVSTYYADSVKGRFTISRDNAKNTVYLQMNSLKPEDTAVYYCAARYFGEKYSQGFDYWGQGTQVTVSS | low polyreactivity |
| QVQLVESGGGLVQAGGSLRLSCAASGRTLDLYAMGWYRQAPGKERELVAAISWRGGRTYYADSVKGRFTISRDNAQTTVYLQMNSLKPEDTAVYYCKADYPWSVVGYDYWGQGTQVSVSS | low polyreactivity |
| QVQLVESGGGLVQAGGSLRLSCAASGFIFTRNVMGWNRQAPGKERELVAAISSGGRTYYADSVKGRFTISRDNAKKTVYFQMISLKPEDTAVYYCNAGNRGVYRYDYWGQGTQVTVSS | high polyreactivity |
| QVQLVESGVGLVQAGGSLRLSCAACGSTFPINAMGWYRQAPGKESELVAAISWSAGSTHYADSVKGRFTISRDNAKNTVYLQMNSLKPEDTAVYYCAAETWGLGDYWGLGTQVTVSS | low polyreactivity |
| QVQLVESGGGLVQAGGSLRLSCAASGRTFAYYAMGWYRQAPGKERELVAAIDSSGGSTYYADSVKGRFTISRDNAKNTVYLQMNSLKPEDTAVYYCAASYPYDRYDQGGYGYWGQGTQVTVSS | low polyreactivity |
| QVQLVESGGGLVQAGGSLRLSCAASGRIFYYNAMGWYRQAPGKEWELVAAISSSGTTYYADSVKGRFTISRDNAKNTVYLQMNSLKPEDTAVYYCAAGSYWSPYGQSFWPKYDYWGQGTQVTVSS | high polyreactivity |
| QVQLVESGGGLVQAGGSLRLSCAASGMGWYRQAPGKERELVATITTGGTYADSVKGRFTISRDNAKNTVYLQMNSLKPEDTAVYYCAADGLGSVYYLRYNYWGQGTQVTVSS | low polyreactivity |
| QVQLVESGGGLVQAGGSLRLSCAASGITFKYYGMGWYRQAPGKERELVAAISWSGASTYYADSVKRRFTISRDNAKNTVYLQMNSLKPEDTAVYYCAAVRRRGQRGRLDYWGQGTQVTVSS | high polyreactivity |
| QVQLVESGGGIVQAGGSLRLSCAASGSTFVGNAMGWSRQAPGKERELVAAISRTGGSTYYADSVKGRFTISRDNEKNTVYLQMNSLIPEDSAVYYCNAYTRYSSRRGIGDSWGQGTQVTVSS | high polyreactivity |
| QVQLVESGGGLDQAGGSLRLSCAASGSTFSGYAMGWYRQAPGKERELVATITRRGGNTYYADSVKGRFTISRDNAKNTVYLQMNSLKPEDTAVYYCAKDGRVHSPYDYWGQGTQVTVSS | low polyreactivity |
| QVQLVESGGGLVQAGGSLRLSCAASGNILLFNAMGWYRQAPGKERELVATINQSGGRTYYADSVKGRFTISRDNAKNTVYLQMNSLKPEDTAVYYCNAPGSPVVQQPGYYWGQGTQVTVSS | low polyreactivity |
| QVQLVESGGGLVQAGGSLSLSCAASGLTFSAYAMGWYRQAPGKERELVAAISSGVSTNYADSVKGRFTISRDNAKNSVYLQMNSLKPEDTAVYYCKAEYWGAYEYWGQGTQVTVSS | high polyreactivity |
| QVQLVESGGGLVQAGGSLRLSCAASGFIFARYGMGWYRQAPGKERELVAAIRTSGGTYYADSVKGRFTISRDNAKNTVYLQMNSLKPEDTAVYYCNVYRRVIWPKNYDYWGQGTQVTVSS | high polyreactivity |

| Sequence | polyreactivity (PSR sort gate) |
| --- | --- |
| QVQLVESGGGLVQAGGSLRLSCAASGSIFYQYAMGWYRQAPGKERELVARIRGSTGTTYYADSVKGRFTFSRDYAKNTVYLQMNSLKPEDNAVYYCNAARYQGRSRFDYWGQGTQVTVSS | high polyreactivity |
| QVQLVESGGGLVQAGGSLRLSWAASGSTFDSNGMGRYRQAPGKERELVATITSRGASTNYSDSVKGRFTISRDNAKNTVYLEMNSLKPEDTAVYYCNREVPWWLYKYVGHDYWGQGTQVTVSS | low polyreactivity |
| QVQLVESGGGLVQAGGSLRLSCAASGRIFLGNAMGWYRQAPGKERDLVAAITNGGGSTYYADSVKGRFTISRDNAKNTVYLQMNSLKPEDTAVYYCARGYKKSVQRFEYWGQGTQVTVSS | high polyreactivity |
| QVQLVESGGGLVQAGGSLRLSCAASGSTFGYYGMGWYRQAPGKERELVASIDSRGDSTYADSVKGRFTISRDNAKNTVYLQMNSLKPEDTAVYYCAADSWYSWFDSWGQGTQVTVSS | low polyreactivity |
| QVQLVESGGGLVQAGGSLRLSCAASGFIFGYYAMGWYRQAPGKERELVAAINYNDDSTYYADSVKGRFTISRDNAKNTVYLQMNSLKPEDTAVYYCAARRFWPGNSYYYRYYYWGQGTQVTVSS | low polyreactivity |
| QVQLVESGGGLVQAGGSLRLSCAASGSISSAYGMGWYIQAPGKERELVATITSGGSTNYADSVKGRFTISRDNAKNTVYLQMNSLTPEDTAVYYCAVDRYALYSGGDYWGQGTQVTVSS | low polyreactivity |
| QVQLVESGGGLVQAGGSLRLSCAASGRTSAINAMGWYRQAPGKERELVADITRTGGTYADSVKGRFTISRDNAKNTVYLQMNSLKPEDTAVYYCAAVGPWRFDYWGQGTQVTVSS | high polyreactivity |
| QVQLVESGGGLVQAGGSLRLSCAASGSSLDYYAMGWSRQAPGKERDLLAAITWSGGRTSYADSVTGRFTISRDNAKNTVYLQMNSLKPEDTAVYYGAAESFLYLLDRASGWQYEYWGQGTQVSVSS | low polyreactivity |
| QVQLVESGGGLVQAGGSLRLSCAASGSTFPFYAMGWYRQAPGKERELVAAIPSGGSTYADSVKGRFTISRDNAKNTVYLQMNSLKPEDTAVYYCAASWPRWWRFGYWGQGTQVTVSS | low polyreactivity |
| QVQLVESGGGLVQAGGSLRLSCAASGSTFFRYAMGLYRQAPGKERELVAAISWSGGTTYYADSVKGRFTISRDNAQNTVYLQMYSLKPEDTAVYYCNAVRQGHILDYWGQGTQVTVSS | low polyreactivity |
| QVRLVESGGGLVQAGGSLRLSCAASGSTFQINAMGWYRQAPGKEREFVAAITVSSGSTYYADSVKGRFTISRDNAKNTVYLQMNSLKPEDTAVYYCAATSKPLGLQTYGYWGQGTQVTVSS | low polyreactivity |
| QVQLVESGGGLVQAGGSLRLSCAASGRIFSYYAMGWYRQAPGKERELVAAITSAGGTNYADSVKGRFTISRDNAKNTVYLQMNSLNPEDTAVYYCAAAKRDFVEYDYWGQGTQVTVSS | low polyreactivity |
| QVQLVESGGGLVQAGGSLRLSCAASGSTFSPNVMGWYRQAPGKERELVAAISSSTGSTNYADSVKGRFTISRDNAKNTVYLQMNSLKPEDTAVDYCAVDPYVHWTTKLYDYWGQGTLVTVSS | low polyreactivity |
| QVQLVESGGGLVQAGGSLRLSCAASGFTFSPYAMGGYRKAPGKERELVAAISSSGGSTYYADSVKGRFTISRDNAKNTVYLQMNSLKPEDTAVYYCATQGTRRPGKFYYWGQGTQVPVSS | high polyreactivity |
| QVQLVESGGGLVQAGGSLRLSCAASGSTFWKYVIGWYRQEPGKERELVAAITSRGGSTYADSVKGRFTISRDNAKNTVYLQMNSLKPEDTAVYYCAATKFWYYGYDYWGQGTQVTVSS | low polyreactivity |
| QVQLVESGGGLVQAAGSLRLICAASGSTFEGNVMGWYRPAPGKERELVAAMSVRGGSTYYADSVKGRFTISRDNAKNTVYLQMNSLKQEDTEDYYCAKKYYRPFWEGDYWGQGTQVTVSS | low polyreactivity |
